The results in this text go back to patent WO2007059715A2 (dated 2007).

The assay addresses chimeric protein PMEC1-His6 (dengue 2 virus, strain 1409, genotype …). Kind of assay: dot blot, 10 μg protein spotted, antibody 10 μg/ml.

B1: monoclonal antibody 4G2 (antibody, V domains shown)
VH: EVQLQQSGPELVKPGTSVKISCKTSGYTFTEYTIHWVKQSHGKSLAWIGGIDPNSGGTNYSPNFKGKATLTVDKSSSTAYMDLRSLSSEDSAVYFCARIYHYDGYFDVWGAGTAVTVSS
VL: NIVMTQSPKSMSMSVGERVTLTCKASENVVTYVSWYQQKPEQSPKLLIYGASNRYTGVPDRFTGSGSATDFTLTISSVQAEDLADYHCGQGYSYPYTFGGGTKLEIK
notes: also called AcM 4G2; Mab 4G2
Consider B1, for which the binding result is “binds”.
